Results reported in patent publication US20220088148A1 (HANMI PHARM, published 2022).
Substitutions are numbered along the chain they refer to. Bridges are numbered along the chain shown (N, C = ends). Where no end group is shown, it is not given here. [ ]: non-standard residue; d: D form. The star is where a group is joined. Acetyl(2-(4-imidazolyl)) = O=C(Cc1c[nH]cn1)*; Aib = CC(C)(N)C(=O)O

T1: human GIP receptor (human, UniProt P48546 22-466)
T1 sequence (looked up): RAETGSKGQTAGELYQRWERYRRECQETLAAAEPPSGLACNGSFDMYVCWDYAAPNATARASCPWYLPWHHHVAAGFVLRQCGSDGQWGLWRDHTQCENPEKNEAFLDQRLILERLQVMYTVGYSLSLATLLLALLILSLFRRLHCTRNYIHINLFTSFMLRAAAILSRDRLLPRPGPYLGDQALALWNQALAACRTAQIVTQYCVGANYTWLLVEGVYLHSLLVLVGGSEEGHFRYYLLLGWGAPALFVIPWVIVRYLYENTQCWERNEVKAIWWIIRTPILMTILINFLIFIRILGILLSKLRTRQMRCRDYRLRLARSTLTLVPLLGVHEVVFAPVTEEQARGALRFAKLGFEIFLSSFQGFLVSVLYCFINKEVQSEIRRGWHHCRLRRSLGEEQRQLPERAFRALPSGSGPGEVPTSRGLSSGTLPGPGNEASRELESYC

B1: triple agonist of SEQ ID NO: 55 (peptide)
peptide: H[Aib]QGTFTSDYSIAMDEIHQKDFVNWLLAQC
modifications: bridge 16-20
B2: triple agonist of SEQ ID NO: 64 (peptide)
peptide: Y[Aib]QGTFTSDYSKYLDECAAKEFVQWLLDHHPSSGQPPPS
modifications: bridge 16-20; ends not checked
B3: triple agonist of SEQ ID NO: 54 (peptide)
peptide: H[Aib]EGTFTSDYSIAMDEIHQKDFVDWLLAEC
modifications: bridge 16-20; ends not checked
B4: triple agonist of SEQ ID NO: 59 (peptide)
peptide: [Acetyl(2-(4-imidazolyl))][Aib]QGTFTSDYSICMDEKHQKDFVNWLLNTK
modifications: bridge 16-20; ends not checked
B5: triple agonist of SEQ ID NO: 51 (peptide)
peptide: H[Aib]QGTFTSDYSKYLDEKRQKEFVQWLLNTC
modifications: bridge 16-20; ends not checked
B6: triple agonist of SEQ ID NO: 69 (peptide)
peptide: Y[Aib]QGTFTSDYSKCLDERAAKEFVQWLLDHHPSSGQPPPS
modifications: bridge 16-20; ends not checked
B7: triple agonist of SEQ ID NO: 50 (peptide)
peptide: H[Aib]QGTFTSDYSKYLDEKRAKEFVQWLLDHHPSSGQPPPSC
modifications: bridge 16-20; ends not checked
B8: triple agonist of SEQ ID NO: 44 (peptide)
peptide: HGQGTFTSDCSKQLDGQAAQEFVAWLLAGGPSSGAPPPS
B9: triple agonist of SEQ ID NO: 48 (peptide)
peptide: B8 peptide with Q13Y, A18R, E21D, A24N
B10: triple agonist of SEQ ID NO: 45 (peptide)
peptide: B8 peptide with Q13Y, L14M, E21D
B11: triple agonist of SEQ ID NO: 47 (peptide)
peptide: B8 peptide with Q13Y, A18R
B12: triple agonist of SEQ ID NO: 46 (peptide)
peptide: B8 peptide with Q13Y, G16E, A18H
B13: triple agonist of SEQ ID NO: 49 (peptide)
peptide: {Acetyl(2-(4-imidazolyl))}-[Aib]QGTFTSDYSICMDEIHQKDFVNWLLNTK
modifications: bridge 15-19
B14: triple agonist of SEQ ID NO: 35 (peptide)
peptide: H[Aib]QGTFTSDYSIAMDEIHQKDFVNWLLNTKC
modifications: bridge 16-20
B15: triple agonist of SEQ ID NO: 34 (peptide)
peptide: H[Aib]QGTFTSDYSKYLDEKRQKEFVNWLLAQKC
modifications: bridge 16-20

Each binder was assayed against human GLP-1 receptor (human, UniProt P43220 24-463) (assay: cell-based or functional assay).

First: B1
Second: B2
The “In vitro activity (%) vs. GLP-1, cAMP EC50” value of the first is lower: 27.1% for the first, 64.6% for the second.

First: B3
Second: B4
The “In vitro activity (%) vs. GLP-1, cAMP EC50” value of the first is lower: 30.6% for the first, 40.3% for the second.

First: B5
Second: B6
The “In vitro activity (%) vs. GLP-1, cAMP EC50” value of the first is lower: 14.4% for the first, 24.3% for the second.

Compared with B7, B8 is lower in “In vitro activity (%) vs. GLP-1, cAMP EC50” value: 67.4% for the first, 1.3% for the second.

Compared with B9, B10 is higher in “In vitro activity (%) vs. GLP-1, cAMP EC50” value: 1.5% for the first, 6.6% for the second.

First: B11
Second: B12
The “In vitro activity (%) vs. GLP-1, cAMP EC50” value of the first is higher: 2.4% for the first, 1.4% for the second.

Compared with B13, B14 is lower in “In vitro activity (%) vs. GLP-1, cAMP EC50” value: 29.8% for the first, 7.5% for the second.

With B15 the “In vitro activity (%) vs. GLP-1, cAMP EC50” value was 19.1%.

The binders below were run against human GCG receptor (human, UniProt P47871 26-477) (assay: cell-based or functional assay).
Sequence of human GCG receptor (P47871 26-477): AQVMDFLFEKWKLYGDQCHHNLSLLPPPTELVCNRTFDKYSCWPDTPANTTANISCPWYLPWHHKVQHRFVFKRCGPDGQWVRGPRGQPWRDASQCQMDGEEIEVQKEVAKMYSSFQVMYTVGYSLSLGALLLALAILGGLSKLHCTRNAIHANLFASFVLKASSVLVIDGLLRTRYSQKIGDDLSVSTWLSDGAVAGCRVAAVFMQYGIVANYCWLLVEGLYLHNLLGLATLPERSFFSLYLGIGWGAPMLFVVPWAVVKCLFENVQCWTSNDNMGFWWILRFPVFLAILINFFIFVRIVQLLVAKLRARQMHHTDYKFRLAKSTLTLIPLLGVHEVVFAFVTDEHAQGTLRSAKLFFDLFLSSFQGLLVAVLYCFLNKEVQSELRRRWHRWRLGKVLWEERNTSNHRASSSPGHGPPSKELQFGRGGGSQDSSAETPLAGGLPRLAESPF

Compared with B1, B2 is higher in “In vitro activity (%) vs. Glucagon, cAMP EC50” value: 0.7% for the first, 60.1% for the second.

Going from B3 to B4, the “In vitro activity (%) vs. Glucagon, cAMP EC50” value falls from 1.4% to less than 0.1%.

First: B5
Second: B6
The “In vitro activity (%) vs. Glucagon, cAMP EC50” value of the first is lower: 2% for the first, 9.6% for the second.

Going from B7 to B8, the “In vitro activity (%) vs. Glucagon, cAMP EC50” value falls from 50.5% to less than 0.1%.

B9 and B10 cannot be ordered by “In vitro activity (%) vs. Glucagon, cAMP EC50” value: less than 0.1% for the first, less than 0.1% for the second.

B11 and B12 cannot be ordered by “In vitro activity (%) vs. Glucagon, cAMP EC50” value: less than 0.1% for the first, less than 0.1% for the second.

B13 and B14 cannot be ordered by “In vitro activity (%) vs. Glucagon, cAMP EC50” value: less than 0.1% for the first, less than 0.1% for the second.

For B15, the “In vitro activity (%) vs. Glucagon, cAMP EC50” value was 0.92%.

These binders were tested against T1, human GIP receptor (assay: cell-based or functional assay).

Going from B1 to B2, the “In vitro activity (%) vs. GIP, cAMP EC50” value rises from 2.4% to 92.9%.

Compared with B3, B4 is higher in “In vitro activity (%) vs. GIP, cAMP EC50” value: 0.1% for the first, 4% for the second.

First: B5
Second: B6
The “In vitro activity (%) vs. GIP, cAMP EC50” value of the first is lower: 0.1% for the first, 62.8% for the second.

First: B7
Second: B8
The “In vitro activity (%) vs. GIP, cAMP EC50” value of the first is higher: 2.7% for the first, less than 0.1% for the second.

B9 and B10 cannot be ordered by “In vitro activity (%) vs. GIP, cAMP EC50” value: less than 0.1% for the first, less than 0.1% for the second.

B11 and B12 cannot be ordered by “In vitro activity (%) vs. GIP, cAMP EC50” value: less than 0.1% for the first, less than 0.1% for the second.

Going from B13 to B14, the “In vitro activity (%) vs. GIP, cAMP EC50” value falls from 3.3% to 1.3%.

B15 was tested, and the “In vitro activity (%) vs. GIP, cAMP EC50” value was 0.6%.
